Measured values: patent US20240209330A1 (10X GENOMICS, published 2024)

Biological target: T1, recombinant Phi29 polymerase-SpyTag fusion protein (Bacillus phage phi29 (Bacteriophage …, UniProt P03680 2-575))
T1 construct: Expressed in E. coli with an amino terminal polyhistidine/SUMO tag (N-His/SUMO); The tag was cleaved with ULP1; also called N-His/SUMO Phi29 polymerase-SpyTag fusion protein; Phi29 with K-linker-SpyTag003
T1 sequence: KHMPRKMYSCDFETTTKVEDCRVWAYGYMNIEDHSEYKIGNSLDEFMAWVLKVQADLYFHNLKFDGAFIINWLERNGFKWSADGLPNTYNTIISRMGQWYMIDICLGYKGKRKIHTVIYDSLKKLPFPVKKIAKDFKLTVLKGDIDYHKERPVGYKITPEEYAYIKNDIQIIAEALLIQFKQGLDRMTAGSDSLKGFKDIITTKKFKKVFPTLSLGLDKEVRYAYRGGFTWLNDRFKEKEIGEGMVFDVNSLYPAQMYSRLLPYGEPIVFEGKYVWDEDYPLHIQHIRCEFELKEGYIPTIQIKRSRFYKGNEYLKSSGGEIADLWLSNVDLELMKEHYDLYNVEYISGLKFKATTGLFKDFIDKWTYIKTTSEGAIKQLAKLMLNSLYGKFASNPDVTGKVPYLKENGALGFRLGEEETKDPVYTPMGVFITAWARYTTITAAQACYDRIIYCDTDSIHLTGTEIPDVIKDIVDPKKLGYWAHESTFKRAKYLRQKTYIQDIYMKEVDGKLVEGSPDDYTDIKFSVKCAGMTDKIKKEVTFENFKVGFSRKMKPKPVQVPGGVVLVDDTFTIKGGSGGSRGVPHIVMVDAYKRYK
Assay: co-expression in E. coli, nickel purification, SDS-PAGE (covalent SpyCatcher:SpyTag coupling)
Source text: N-His/SUMO recombinant Phi29 polymerase-SpyCatcher fusion protein and recombinant Phi29 polymerase-SpyTag fusion protein were expressed as described in Example 3. The soluble fraction was collected and run on a nickel column. The SDS-PAGE for the various fractions are shown in FIG. 9A (SpyCatcher) and FIG. 9B (SpyTag). The SUMO tag was cleaved using a recombinant Ubl-specific protease 1 (ULP1). Fractions were collected for pre- and post-cleavage of the N-His/SUMO tag, as shown in FIG. 10A (SpyCatcher) and FIG. 10B (SpyTag). Each elution fraction was collected as 1 mL aliquots using an 80-100% gradient of 1 M NaCl.
When the Phi29 polymerase-SpyCatcher fusion protein, the Phi29 polymerase-SpyTag fusion protein were co-expressed in E. coli, a dimer of fusion proteins (e.g., a dimer of Phi29 polymerase-SpyCatcher:Phi29 polymerase-SpyTag; comprising two Phi29 polymerase domains), with an approximate molecular weight of 147.974 kDa, was generated based on the protein coupling between SpyCatcher:SpyTag. (FIG. 10C, lane 3).

B1: recombinant Phi29 polymerase-SpyCatcher fusion protein (enzyme)
chain: KHMPRKMYSCDFETTTKVEDCRVWAYGYMNIEDHSEYKIGNSLDEFMAWVLKVQADLYFHNLKFDGAFIINWLERNGFKWSADGLPNTYNTIISRMGQWYMIDICLGYKGKRKIHTVIYDSLKKLPFPVKKIAKDFKLTVLKGDIDYHKERPVGYKITPEEYAYIKNDIQIIAEALLIQFKQGLDRMTAGSDSLKGFKDIITTKKFKKVFPTLSLGLDKEVRYAYRGGFTWLNDRFKEKEIGEGMVFDVNSLYPAQMYSRLLPYGEPIVFEGKYVWDEDYPLHIQHIRCEFELKEGYIPTIQIKRSRFYKGNEYLKSSGGEIADLWLSNVDLELMKEHYDLYNVEYISGLKFKATTGLFKDFIDKWTYIKTTSEGAIKQLAKLMLNSLYGKFASNPDVTGKVPYLKENGALGFRLGEEETKDPVYTPMGVFITAWARYTTITAAQACYDRIIYCDTDSIHLTGTEIPDVIKDIVDPKKLGYWAHESTFKRAKYLRQKTYIQDIYMKEVDGKLVEGSPDDYTDIKFSVKCAGMTDKIKKEVTFENFKVGFSRKMKPKPVQVPGGVVLVDDTFTIKGGSGGSVTTLSGLSGEQGPSGDMTTEEDSATHIKFSKRDEDGRELAGATMELRDSSGKTISTWISDGHVKDFYLYPGKYTFVETAAPDGYEVATPIEFTVNEDGQVTVDGEATEGDAHT
notes: Expressed in E. coli with an amino terminal polyhistidine/SUMO tag (N-His/SUMO); The tag was cleaved with ULP1; also called N-His/SUMO Phi29 polymerase-SpyCatcher fusion protein; Phi29 with K-linker-SpyCatcher003
binding result: binds
